# In paper PMC3323627:
# Target: Tula virus (TULV) nonstructural protein NSs, strain Lodz, in infected cells (Tula virus, strain Lodz)
# Assay: FRET or BRET
substance,measurement,value
"ACBD3 protein, endogenous in common vole (Microtus arvalis) kidney cells (natural protein)",FRET efficiency,20%
